According to patent US11925667B2, “Engineered therapeutic probiotic system and method” (priority 2018, dated 2024):

B1: Armoracia rusticana myrosinase I1, SEQ ID NO: 6 (Armoracia rusticana) (protein)
chain: QNVCNPACKAKEPFNCDNTLTFNQTGFPKNFTFGAATSAYQIEGAAHRALNGWDYFTHRYPEKVPDRSSGDLACDSYDLYKDDVKLLKRMNVQAYRLSIAWSRVLPKGRLIGGVDENGITYYNNLINELKANGIEPYVTIFHWDVPQTLEDEYGGFLSPRIVEDFTNFAELLFQRFGDRVKFWITLNQPYSLATKGYGDGSYPPGRCTDCEFGGDSGTEPYIVAHHQLLAHAETVSLYRKRYQKFQGGKIGTTLIGRWFQPLNQTSNLDKAAAKRAFDFFVGWFLDPLVYGEYPKIMKEMVGDRMPKFTPQESDLVKGSLDFLGLNYYVTQYATDAPPSIPTQPSAITDPRVTLGYYRNGIPIGVQAASFVYYPTGFRQILNHIKDNYKNPLTYITENGVADFGNLTLANALADIGRIQNHCSHLSCLKCAIADGCNVGGYFAWSFMDNYEFGNGYTLRFGMNWVNFTNPADRKQKDSGKWFSKFLAK
notes: elsewhere used as YebF-I1 fusion
B2: Brevicoryne brassicae myrosinase BMY1 (Brevicoryne brassicae) (protein)
chain: MDYKFPKDFMFGTSTASYQIEGGWNEDGKGENIWDRLVHTSPEVIKDGTNGDIACDSYHKYKEDVAIIKDLNLKFYRFSISWARIAPSGVMNSLEPKGIAYYNNLINELIKNDIIPLVTMYHWDLPQYLQDLGGWVNPIMSDYFKEYARVLFTYFGDRVKWWITFNEPIAVCKGYSIKAYAPNLNLKTTGHYLAGHTQLIAHGKAYRLYEEMFKPTQNGKISISISGVFFMPKNAESDDDIETAERANQFERGWFGHPVYKGDYPPIMKKWVDQKSKEEGLPWSKLPKFTKDEIKLLKGTADFYALNHYSSRLVTFGSDPNPNFNPDASYVTSVDEAWLKPNETPYIIPVPEGLRKLLIWLKNEYGNPQLLITENGYGDDGQLDDFEKISYLKNYLNATLQAMYEDKCNVIGYTVWSLLDNFEWFYGYSIHFGLVKIDFNDPQRTRTKRESYTYFKNVVSTGKP

What was measured:
[1] = substrate: C=CC/C(=N/OS(=O)(=O)O)S[C@@H]1O[C@H](CO)[C@@H](O)[C@H](O)[C@H]1O; test: Myrosinase activity assay (glucose release from sinigrin hydrolysis), I1; type: biochemical, Armoracia rusticana
Text: In a preferred embodiment, the myrosinases derived from Armoracia rusticana (I1) and Brassica oleacea (A6) have a better stability and catalytic efficiency in various temperatures and pH values when compared with those derived from BMY1 and TGG1 (Table 1). In a preferred illustrative embodiment I1 myrosinase is selected owing to its Km value and improved kcat at the colorectal ambient temperature and pH (FIG. 2c, 2d and Table 1). By comparing the modeled-I1 myrosinase protein structure against that of the BMY1 myrosinase, the critical side chain residues involved in glucose-ring recognition and the glutamic acid that served as a nucleophile during catalysis are conserved. According to the claimed invention the improved catalytic efficiency of the I1 myrosinase is correlated to its pI value (pI=7.90) and the overall positively charged surface (FIG. 8) that contributes to better structural stability.
(§1) Gene cloning, protein expression and purification. Myrosinase genes are optimized for E. coli expression and cloned into the pET28b expression vector. The plasmids are transformed into E. coli BL21 (DE3) cultured in lysogeny broth (LB) (BD, Le Pont de Claix, France) at 37° C., 225 rpm to OD600 0.6 followed by 0.5 mM isopropyl β-D-1-thiogalactopyranoside (IPTG) induction at 16° C., 180 rpm for 16 hours. Cells are harvested, resuspended in lysis buffer (50 mM Tris-Cl, 300 mM NaCl, 10% glycerol, 1 mM dithiothreitol [DTT], pH 8.0) and lysed using Emulsiflex C-3 (Avestin). Expressed myrosinases are purified by IMAC Ni-NTA purification followed by Hi-Load Superdex 200 size exclusion column chromatography (GE, Uppsala, Sweden). The purified protein is concentrated and stored at −80° C. Pilot scale protein purification and enzymatic assay is conducted.
(§2) Myrosinase screening assay. The enzymatic reaction is measured for the release of glucose resulting from sinigrin hydrolysis. The reaction is conducted in sodium phosphate-buffered solution supplied in the Amplex® Red Glucose/Glucose Oxidase Assay Kit (Thermo Fisher Scientific, Geel, Belgium). The reaction buffer is prepared at different pH values (6.0, 6.5, 7.4 and 8.0) and at different reaction temperatures (34° C., 37° C., and 40° C.). The reaction is prepared using 0.1 μM purified myrosinase added to 1× Amplex® Red Glucose Assay reaction mixture and was kick-started with the corresponding concentration of sinigrin. The reaction can be measured at 560 nm absorbance and fluorescence (λex=540 nm, λem=590 nm) using a Synergy H1 Multi-Mode microtiter plate reader (BioTek®, Winooski, USA). The reaction initial velocity (VO) is determined and fitted into a Michaelis-Menten curve. Vmax and KM are determined by fitting into the Michaelis-Menten equation (Eq. 1) using GraphPad Prism Software. ^v=Vmax*[Sinigrin]/(KM+[Sinigrin]) (Eq.1)
(§3) Table S1|Myrosinase activity assay screening under various pH and temperature conditions (n=3 independent experiments, each measurement performed in triplicates; mean[…].).

[2] = substrate: C=CC/C(=N/OS(=O)(=O)O)S[C@@H]1O[C@H](CO)[C@@H](O)[C@H](O)[C@H]1O; test: Myrosinase activity assay (glucose release from sinigrin hydrolysis), BMY1; type: biochemical, Brevicoryne brassicae
Procedure: Screening for improved β-thioglucosidase. The activity and stability of myrosinase, a β-thioglucosidase that hydrolyzes glucosinolate to sulforaphane, varies at differing pH and temperature; in a preferred embodiment the selected enzyme needs to function under physiological colorectal conditions. The healthy colon pH averages 6.6, while it is 7.0 and 6.7 in patients with adenoma and carcinoma, respectively. In addition, the temperature of the human intestinal tract ranges from 36° C. to 40° C. depending on the individual's metabolic state. In the illustrative example five plant-derived myrosinase orthologues with minimal glycosylation sites and the absence of the co-factor-binding sites using the BLAST search and the Enzyme Function Initiative-Enzyme Similarity Tool (EFI-EST), are compared to the well-characterized myrosinases from Brevicoryne brassicae (BMY1) and Arabidopsis thaliana (TGG1) (FIG. 2a and FIG. 7).
as §1, §2, §3

[3] = other: pH 6.0, 37° C., pH 6.0, 37.0 °C
[4] = other: pH 6.5, 37° C., pH 6.5, 37.0 °C
[5] = other: pH 7.4, 34° C., pH 7.4, 34.0 °C
[6] = other: pH 7.4, 37° C., pH 7.4, 37.0 °C
[7] = other: pH 7.4, 40° C., pH 7.4, 40.0 °C
[8] = other: pH 8.0, 37° C., pH 8.0, 37.0 °C

Row | Protein | Km [1, 3] [µM] | Km [1, 4] [µM] | Km [1, 5] [µM] | Km [1, 6] [µM] | Km [1, 7] [µM] | Km [1, 8] [µM] | Km [2, 3] [µM] | Km [2, 4] [µM] | Km [2, 5] [µM] | Km [2, 6] [µM] | Km [2, 7] [µM] | Km [2, 8] [µM]
1 | B1 | 192 ± 40 | 183 ± 19 | 49 ± 4 | 87 ± 7 | 87 ± 9 | 192 ± 17 |  |  |  |  |  | 
2 | B2 |  |  |  |  |  |  | 153 ± 17 | 399 ± 86 | 76 ± 6 | 67 ± 1 | 342 ± 67 | 217 ± 87
